Data: US20160195541A1
Several values for one entry are separate records, joined by “and”; a condition that tells them apart may be missing. Identical values can stand only once.

Columns and labels:
[1] = biological target: membrane-bound human FcγRIIB on Raji cells (human) (UniProt P31994); experiment: FACS on Raji cells (FACS021), constant aggregated IgG; competitor SM101 IMP 0.5 µg/µL
[2] = biological target: membrane-bound human FcγRIIB on Raji cells (human) (UniProt P31994); experiment: FACS on Raji cells, aggregated Beriglobin at 5.0 (µg/µL); mean of three batches
[3] = biological target: membrane-bound human FcγRIIB on Raji cells (human) (UniProt P31994); experiment: FACS: 0.1E6 Raji cells (FcγRIIB) with 2.5 µg aggregated Beriglobin at the stated pH; 1/200 anti-human IgG(H+L)-PE; secondary antibody alone in this panel 173; pH 7.2
[4] = biological target: membrane-bound human FcγRIIB on Raji cells (human) (UniProt P31994); experiment: FACS on Raji cells, aggregated Beriglobin at 5.0 (µg/µL)
[5] = biological target: membrane-bound human FcγRIIB on Raji cells (human) (UniProt P31994); experiment: FACS on Raji cells (FACS021), constant aggregated IgG; competitor SM101 IMP 0.25 µg/µL
[6] = biological target: membrane-bound human FcγRIIB on Raji cells (human) (UniProt P31994); experiment: FACS on Raji cells (FACS007), constant aggregated IgG; competitor SM101 0.125 µg/µL
[7] = biological target: membrane-bound human FcγRIIB on Raji cells (human) (UniProt P31994); experiment: FACS: 0.1E6 Raji cells (FcγRIIB) with 2.5 µg aggregated Beriglobin at the stated pH; 1/200 anti-human IgG(H+L)-PE; drawn table, secondary antibody control not subtracted
[8] = biological target: membrane-bound human FcγRIIB on Raji cells (human) (UniProt P31994); experiment: FACS: 0.1E6 Raji cells (FcγRIIB) with 2.5 µg aggregated Beriglobin at the stated pH; 1/200 anti-human IgG(H+L)-PE; drawn table, secondary antibody control not subtracted; pH 7.2
[9] = biological target: membrane-bound human FcγRIIB on Raji cells (human) (UniProt P31994); experiment: FACS on Raji cells (FACS007), constant aggregated IgG, anti-human IgG-PE; no competitor
[10] = biological target: membrane-bound human FcγRIIB on Raji cells (human) (UniProt P31994); experiment: FACS on Raji cells, aggregated Beriglobin at 2.5 (µg/µL); mean of three batches
[11] = biological target: membrane-bound human FcγRIIB on Raji cells (human) (UniProt P31994); experiment: FACS on Raji cells (FACS021), constant aggregated IgG; no competitor (Ref. Std. series)
[12] = biological target: membrane-bound human FcγRIIB on Raji cells (human) (UniProt P31994); experiment: FACS on Raji cells (FACS021), constant aggregated IgG; competitor SM101 IMP 0.0156 µg/µL
[13] = biological target: membrane-bound human FcγRIIB on Raji cells (human) (UniProt P31994); experiment: FACS on Raji cells (FACS007), constant aggregated IgG; competitor SM101 0.25 µg/µL
[14] = biological target: membrane-bound human FcγRIIB on Raji cells (human) (UniProt P31994); experiment: FACS on Raji cells (FACS021), constant aggregated IgG; competitor SM101 Ref. Std. 0.03125 µg/µL
[15] = biological target: membrane-bound human FcγRIIB on Raji cells (human) (UniProt P31994); experiment: FACS on Raji cells (FACS021), constant aggregated IgG; competitor SM101 Ref. Std. 0.25 µg/µL
[16] = biological target: membrane-bound human FcγRIIB on Raji cells (human) (UniProt P31994); experiment: FACS on Raji cells (FACS007), constant aggregated IgG; competitor SM101 0.0078 µg/µL
[17] = biological target: membrane-bound human FcγRIIB on Raji cells (human) (UniProt P31994); experiment: FACS: 0.1E6 Raji cells (FcγRIIB) with 2.5 µg aggregated Beriglobin at the stated pH; 1/200 anti-human IgG(H+L)-PE; secondary antibody alone in this panel 173
[18] = biological target: membrane-bound human FcγRIIB on Raji cells (human) (UniProt P31994); experiment: FACS on Raji cells (FACS021), constant aggregated IgG; competitor SM101 Ref. Std. 0.0156 µg/µL
[19] = biological target: membrane-bound human FcγRIIB on Raji cells (human) (UniProt P31994); experiment: FACS on Raji cells (FACS021), constant aggregated IgG; competitor SM101 Ref. Std. 0.0078 µg/µL
[20] = biological target: membrane-bound human FcγRIIB on Raji cells (human) (UniProt P31994); experiment: FACS on Raji cells (FACS007), constant aggregated IgG; competitor SM101 0.0625 µg/µL
[21] = biological target: membrane-bound human FcγRIIB on Raji cells (human) (UniProt P31994); experiment: FACS on Raji cells (FACS021), constant aggregated IgG; competitor SM101 IMP 0.0625 µg/µL
[22] = biological target: membrane-bound human FcγRIIB on Raji cells (human) (UniProt P31994); experiment: FACS: 0.1E6 Raji cells (FcγRIIB) with 2.5 µg aggregated Beriglobin at the stated pH; 1/200 anti-human IgG(H+L)-PE; secondary antibody alone in this panel 142
[23] = biological target: membrane-bound human FcγRIIB on Raji cells (human) (UniProt P31994); experiment: FACS on Raji cells (FACS021), constant aggregated IgG; competitor SM101 IMP 0.0078 µg/µL
[24] = biological target: membrane-bound human FcγRIIB on Raji cells (human) (UniProt P31994); experiment: FACS: 0.1E6 Raji cells (FcγRIIB) with 2.5 µg aggregated Beriglobin at the stated pH; 1/200 anti-human IgG(H+L)-PE; secondary antibody alone in this panel 173; pH 6.5

Chain of UniProt P31994 (P31994 43-310): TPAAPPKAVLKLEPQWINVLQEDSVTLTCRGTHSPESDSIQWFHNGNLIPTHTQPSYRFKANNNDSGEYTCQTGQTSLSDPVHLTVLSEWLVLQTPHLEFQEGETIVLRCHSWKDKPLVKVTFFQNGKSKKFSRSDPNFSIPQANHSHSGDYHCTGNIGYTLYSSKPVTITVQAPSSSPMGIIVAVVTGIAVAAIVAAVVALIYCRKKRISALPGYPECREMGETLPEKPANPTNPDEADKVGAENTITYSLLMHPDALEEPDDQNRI

Median Signal [1]: 195
Median MFI (mean) [2]: 1110
Median MFI at pH 7.2 (left panel) [3]: 561
Median MFI [4]: 1230 and 1140 and 960
Median Signal [5]: 281
Median Signal [6]: 329
Median MFI at pH 7 [7]: 599
Median MFI at pH 7.8 [7]: 363
Median MFI at pH 8 [7]: 348
Median MFI at pH 8.5 [7]: 246
Median MFI at pH 9 [7]: 244
Median MFI at pH 10 [7]: 177
Median MFI at pH 7.2 [8]: 561
Median Signal [9]: 3880
Median MFI (mean) [10]: 1280
Median Signal [11]: 6460
Median Signal [12]: 3810
Median Signal [13]: 197
Median Signal [14]: 1640
Median Signal [15]: 269
Median Signal [16]: 3010
Median MFI at pH 7.0 (left panel) [17]: 599
Median MFI at pH 7.8 (left panel) [17]: 363
Median MFI at pH 8.0 (left panel) [17]: 348
Median Signal [18]: 2330
Median Signal [19]: 5230
Median Signal [20]: 466
Median Signal [21]: 831
Median MFI at pH 7.0 (right panel) [22]: 866
Median MFI at pH 8.0 (right panel) [22]: 316
Median MFI at pH 8.5 (right panel) [22]: 246
Median MFI at pH 9.0 (right panel) [22]: 244
Median MFI at pH 10 (right panel) [22]: 177
Median Signal [23]: 5310
Median MFI at pH 6.5 (left panel) [24]: 703
Substance: aggregated human IgG (aggregated Beriglobin, aggregated fraction isolated by size exclusion chromatography) (antibody)
